Data on four molecules can be found in patent US20160032279.

Test [1] concerns the target T1, C-reactive protein (human), P02741.
T1 chain: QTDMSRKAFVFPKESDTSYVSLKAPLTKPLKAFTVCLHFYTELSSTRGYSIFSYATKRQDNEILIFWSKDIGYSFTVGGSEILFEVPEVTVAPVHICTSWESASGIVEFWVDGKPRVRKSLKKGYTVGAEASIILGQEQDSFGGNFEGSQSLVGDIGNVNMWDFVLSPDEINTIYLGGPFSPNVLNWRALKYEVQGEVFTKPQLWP
Briefly: FACS. The conditions noted are these: modification not given.

Test [2] has the same target. The test can be described thus: FACS. The conditions noted are these: modification not given.

B1: CRP-6 (peptide)
chain: MIFNSRGFLSLMSSG
In test [1], B1 had a Kd of 8 nM.

B2: CRP-1 (peptide)
chain: EWACNDRGFNCQLQR
Turning to B2, the Kd was found to be 1.2 nM in test [1] and 1 nM in test [2].

B3: CRP-2 (peptide)
chain: FPIYNQRGFITLASP
Take B3: in test [1], the Kd came to 3 nM.

B4: CRP-10 (peptide)
chain: YPPRFQYYRFYYRGP
B4 displayed a Kd in test [1] of 5 nM.
